These results are taken from US20230301998A1, “METHODS AND COMPOSITIONS FOR INDUCTION OF ANTITUMOR IMMUNITY” (Sanford Burnham Prebys Medical Discovery Institute, priority 2020, published 2023).

The assay relates to Nlrc5 and Nlrc5 target genes. In words: Expression of antigen presentation genes / surface MHCI in B16 cells. The class given is cell-based, mouse. The conditions noted are these: B16 cells stimulated 24 hr (FIGS. 13E-G).

B1: interferon-gamma: interferon gamma (R&D Systems) used to stimulate cells (protein, UniProt P01579 24-161, looked up)
Interferon gamma: QDPYVKEAENLKKYFNAGHSDVADNGTLFLGILKNWKEESDRKIMQSQIVSFYFKLFKNFKDDQSIQKSVETIKEDMNVKFFNSNKKKRDDFEKLTNYSVTDLNVQRKAIHELIQVMAELSPAAKTGKRKRSQMLFRG
For B1, the “expression of PSMB9 and surface expression of MHCI (H-2Kb)” value is reported as “increased”.
